Data from patent US20040215400A1, “Computational design of a water-soluble analog of a protein, such as phospholamban and potassium channel KcsA” (priority 2003, published 2004).

Key:
[1] = target: native channel (Streptomyces lividans, UniProt P0A334); conditions: read-out: reported Kdiss, Heginbotham et al. 1999; cited from earlier work
[2] = target: WSK-3 (Streptomyces lividans, UniProt P0A334, L24D/W26E/G43A/Q58A/T61S/R64D/L81R/V93E/S102V/G104A, form not given)
[3] = Thermal denaturation monitored by circular dichroism at 222 nm; assay type: physicochemical; parameters: ΔCp: unit not given here
Experimental: All of the peptides were thermally unfolded, monitoring the loss of signal at 222 nm by CD spectroscopy with increasing temperature. Scans taken with 60 s signal averaging time and equilibration of 4 min at each temperature. Concentrations of peptide are 50 and 125 μM. Data were fit to a two-state model (theoretical curves are shown) with a monomer-pentamer equilibrium. […] Previously it has been shown that global fitting of such curves obtained at multiple protein concentrations can be used to confirm the aggregation state and obtain highly accurate measures of the free energy of association. Application of these procedures to WSPLB allows an excellent fit for a monomer-pentamer equilibrium, providing the thermodynamic parameters described in Table 1. The predicted midpoint concentration for the monomer-pentamer isotherm was 4.9 μM (30 kcal/mol) at 25° C., in good agreement with the value of 6 μM (28 kcal/mol) obtained from sedimentation equilibrium.
Conditions are identical to those in FIG. 2. Scans taken with 60 s signal averaging time and equilibration of 4 min at each temperature. Concentrations of both peptides are 50 μM. […] At these concentrations the ΔTm was approximately 8° C., and the ΔΔGunf was 4 kcal/mol. In Table 1, parameters are shown for full length WSPLB and phosphorylated pWSPLB, including ΔGunf, ΔHunf, and ΔCp, all at 1 M standard state, and a reference temperature of 350 K. Tm at 50 μM is also shown. ACP was a global fitting parameter for WSPLB, but held fixed for pWSPLB at the same value as WSPLB.
Thermal unfolding curves of WSPLB (residues 21-52) from 2 to 94° C. are illustrated in FIG. 7. Scans taken with 60 s signal averaging time and equilibration of 4 minutes at each temperature. Conditions and peptide concentrations were identical to those in FIG. 2. […] At higher temperatures a main transition is observed, which depends on the concentration of the peptide. […] In contrast, the main transition corresponds to dissociation of the oligomer to unfolded monomer. The increase in stability of WSPLB (residues 21-52) to WSPLB, also seen in sedimentation equilibrium, is apparent in the increase in Tm which is 76° C. for WSPLB (residues 21-52) versus 55° C. for WSPLB at 50 μM.
All CD spectra were collected on an AVIV 62DS spectropolarimeter, using a 1 mm pathlength quartz cuvette. CD spectra of WSPLB and pWSPLB were collected in 10 mM sodium phosphate pH 7.5, 50 mM NaCl, 1 mM tris (2-carboxyethyl)-phosphine hydrochloride (TCEP-HCl), and 1 mM EDTA while those for WSPLB (residues 21-52) in the same buffer substituted with 50 mM MOPS pH 7. Each wavelength scan from 200-260 nm is an average of four scans with 4 second averaging time per data point at 25° C. All thermal melting curves were collected in the same buffers as their corresponding wavelength scans, with 60 second averaging time and 4 minute equilibration time. The elipticity was measured at 222 nm as a function of increasing temperature (2-94° C.). WSPLB and pWSPLB melting curves were analyzed with Igor Pro® 3.16 (available from WaveMetrics, Inc., Oswego, Oreg. 97035), assuming a two-state unfolding pathway.
where [θ] is mean residue elipticity (deg cm^2 dmol^−1), T° is the midpoint of the transition, ΔH° is the van't Hoff enthalpy at the midpoint (kcal mol^−1), ΔS° is the standard state entropy (kcal mol^−1 K^−1), and ΔCP is the change in heat capacity over the temperature range of the experiment (kcal mol^−1 K^−1). In fitting, the floating parameters are the initial and final [θ] values, the slopes of the folded and unfolded baselines, ΔH, ΔCP, and Tm. The parameters were globally fit to three equilibria schemes, from monomer-tetramer to hexamer, using data collected at 49 and 126 μM. Only the monomer-pentamer scheme provided an adequate fit to the data. ΔCP was held constant for pWSPLB at the value obtained for WSPLB.

[4] = Sedimentation equilibrium analytical ultracentrifugation, monomer-nmer self-association; assay type: physicochemical
Experimental: Sedimentation equilibrium was used to rigorously determine the association state and thermodynamics of the observed oligomers. Because WSPLB eluted as a single homogenous species from size exclusion chromatography, and its CD spectra were concentration independent above 100 μM, we initially determined its association state at 113 μM centrifuged at 35,000 rpm. In these conditions, WSPLB sedimented as a single species with a molecular weight of approximately 31,600+/−200, or a pentamer (n=5.04). […] The monomer-pentamer dissociation constant was determined to be 6.34×10^−21 M^4 with a P(1/2)=6 μM, where P(1/2) is the midpoint of the monomer-nmer isotherm in total peptide concentration. […]
Measurements were made at 25° C. using a Beckman XL-1 analytical ultracentrifuge. […] Concentrations were monitored using absorption optics at a wavelength of 275 nm and equilibrium was assessed by the absence of significant change in radial concentration gradients in scans separated by a few hours. […] An uncertainty was estimated of about +10% in the calculated molecular weight of the protein, arising largely from uncertainty in the partial specific volume, which is calculated from a weight average of individual amino acids. […] Association constants were determined similarly, keeping the monomer molecular weight and oligomer number constant, and allowing the equilibrium constant to float. […]

[5] = global fit, monomer-pentamer, 1 M standard state, reference temperature 350 K

WSK-3, sequence (P0A334 whole entry L24D/W26E/G43A/Q58A/T61S/R64D/L81R/V93E/S102V/G104A, looked up): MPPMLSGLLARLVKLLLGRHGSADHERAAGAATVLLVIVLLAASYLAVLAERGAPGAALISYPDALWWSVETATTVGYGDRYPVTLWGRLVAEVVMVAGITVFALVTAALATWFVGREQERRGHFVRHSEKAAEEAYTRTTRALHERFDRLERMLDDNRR
native channel, sequence (P0A334 whole entry): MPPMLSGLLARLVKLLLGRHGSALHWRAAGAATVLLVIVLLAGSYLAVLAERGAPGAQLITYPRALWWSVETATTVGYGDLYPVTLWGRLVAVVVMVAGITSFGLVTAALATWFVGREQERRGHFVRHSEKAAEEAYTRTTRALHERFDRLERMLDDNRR

| Compound | Kd [1] | competition with AgTx2-DNP for binding to WSK-3 ([2]; AgTx2-DNP 10 μM, WSK-3 10 μM tetramer, relative to KCl control) | Kd ([2]; read-out: Kdiss for TEA, from TEA concentration for 50% total toxin dissociation, assuming Kdiss≦2 μM for AgTx2-DNP) | increase of stability by phosphorylation [3] | Tm at 50 μM ([3]; 50 μM peptide, CD 222 nm, 2-94° C.) | predicted midpoint concentration for the monomer-pentamer isotherm ([3]; at 25° C., from global fit of thermal denaturation) | free energy of association (monomer-pentamer) ([3]; at 25° C., from thermal denaturation) | ΔGunf [3, 5] | ΔHunf [3, 5] | ΔCp ([3]; global fitting parameter for WSPLB, held fixed for pWSPLB at the WSPLB value) | free energy of association (monomer-pentamer) ([4]; from sedimentation equilibrium) | P(1/2), midpoint of the monomer-nmer isotherm in total peptide concentration ([4]; monomer-pentamer, sedimentation equilibrium, 25° C.) |
| --- | --- | --- | --- | --- | --- | --- | --- | --- | --- | --- | --- | --- |
| CC[N+](CC)(CC)CC.[Cl-] [TEA, tetraethylammonium chloride] | 3.2 to 22 mM | induces dissociation of AgTx2-DNP from WSK-3 in a concentration-dependent manner | ≤ 80 mM | – | – | – | – | – | – | – | – | – |
| WSPLB: computationally designed water-soluble analog of phospholamban, full length, expressed in E. coli (MDKVQYLTRSAIRRAISTIEMPQQARQNLQNLYINRCLREICQELKEIRAMLK; WSPLB) | – | – | – | -0.9 kcal/mol/monomer | 55 °C | 4.9 µM | 30 kcal/mol | 19.2 kcal/mol | 229 kcal/mol | 1.9 | 28 kcal/mol | 6 µM |
